# Measurements as given in patent US20100036095A1.
# Columns and labels:
# [1] = target: wild type human CD59, epitope-tagged, GPI-anchored on CHO cells (human) (UniProt P13987); assay: flow cytometry on CHO cells expressing the CD59 form
# human CD59 W40A (human) = human CD59 W40A (human) (UniProt P13987); assay: as above
# [2] = target: human CD59 20A23A (human) (UniProt P13987); assay: as above
# human CD59 D24A (human) = human CD59 D24A (human) (UniProt P13987); assay: as above
# human CD59 H44A (human) = human CD59 H44A (human) (UniProt P13987); assay: as above
# human CD59 F42A (human) = human CD59 F42A (human) (UniProt P13987); assay: as above
# human CD59 T52A (human) = human CD59 T52A (human) (UniProt P13987); assay: as above
# human CD59 F23G (human) = human CD59 F23G (human) (UniProt P13987); assay: as above
# [3] = target: human CD59 51A plus 20-23A (human) (UniProt P13987); assay: as above
# human CD59 5R (human) = human CD59 5R (human) (UniProt P13987); assay: as above
# human CD59 9R (human) = human CD59 9R (human) (UniProt P13987); assay: as above
# [4] = target: C8/C9 (complement components C8 and C9 of normal human serum, in the assembling membrane attack complex) (human) (UniProt P07357); assay: cell-based or functional assay
# C8/C9 (complement components C8 and C9 of normal human serum, in the assembling membrane attack complex) (human), sequence (P07357 31-584 limits assumed, chain 1 of 4): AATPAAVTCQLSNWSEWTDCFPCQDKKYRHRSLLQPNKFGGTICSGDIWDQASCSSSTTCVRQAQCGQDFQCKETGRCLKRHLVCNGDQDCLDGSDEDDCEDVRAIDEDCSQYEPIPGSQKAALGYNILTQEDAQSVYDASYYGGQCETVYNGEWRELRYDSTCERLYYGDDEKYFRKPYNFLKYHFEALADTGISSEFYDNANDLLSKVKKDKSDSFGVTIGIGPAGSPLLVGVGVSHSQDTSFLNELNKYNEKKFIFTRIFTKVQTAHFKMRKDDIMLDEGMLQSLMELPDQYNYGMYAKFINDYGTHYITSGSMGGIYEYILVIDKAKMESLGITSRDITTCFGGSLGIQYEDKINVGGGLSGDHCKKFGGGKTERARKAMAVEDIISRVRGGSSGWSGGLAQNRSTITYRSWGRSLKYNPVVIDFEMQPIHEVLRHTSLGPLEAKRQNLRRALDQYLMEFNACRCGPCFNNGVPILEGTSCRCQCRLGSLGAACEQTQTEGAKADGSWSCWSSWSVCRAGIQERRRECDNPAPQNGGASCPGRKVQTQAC
# C8/C9 (complement components C8 and C9 of normal human serum, in the assembling membrane attack complex) (human), sequence (P07358 55-591 limits assumed, chain 2 of 4, further chain): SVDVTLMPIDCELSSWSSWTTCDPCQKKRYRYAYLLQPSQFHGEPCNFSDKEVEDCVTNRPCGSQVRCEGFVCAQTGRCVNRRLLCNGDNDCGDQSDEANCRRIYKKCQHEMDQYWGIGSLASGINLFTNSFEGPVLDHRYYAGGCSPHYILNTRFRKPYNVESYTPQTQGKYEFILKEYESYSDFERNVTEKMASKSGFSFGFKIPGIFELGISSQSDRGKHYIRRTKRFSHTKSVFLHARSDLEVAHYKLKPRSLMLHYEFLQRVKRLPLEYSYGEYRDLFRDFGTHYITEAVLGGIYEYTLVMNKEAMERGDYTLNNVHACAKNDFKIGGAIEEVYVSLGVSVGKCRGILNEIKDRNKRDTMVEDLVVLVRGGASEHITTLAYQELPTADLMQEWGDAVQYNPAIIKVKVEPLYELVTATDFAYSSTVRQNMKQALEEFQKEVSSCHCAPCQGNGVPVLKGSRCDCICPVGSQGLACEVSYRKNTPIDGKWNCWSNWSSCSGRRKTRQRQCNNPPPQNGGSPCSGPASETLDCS
# C8/C9 (complement components C8 and C9 of normal human serum, in the assembling membrane attack complex) (human), sequence (P07360 21-202 limits assumed, chain 3 of 4, further chain): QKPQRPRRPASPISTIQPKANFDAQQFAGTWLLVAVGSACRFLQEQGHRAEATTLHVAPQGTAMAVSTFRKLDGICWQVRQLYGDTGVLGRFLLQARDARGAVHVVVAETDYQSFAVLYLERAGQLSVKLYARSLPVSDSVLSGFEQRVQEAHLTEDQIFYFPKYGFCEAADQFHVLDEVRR
# C8/C9 (complement components C8 and C9 of normal human serum, in the assembling membrane attack complex) (human), sequence (P02748 22-559 limits assumed, chain 4 of 4, further chain): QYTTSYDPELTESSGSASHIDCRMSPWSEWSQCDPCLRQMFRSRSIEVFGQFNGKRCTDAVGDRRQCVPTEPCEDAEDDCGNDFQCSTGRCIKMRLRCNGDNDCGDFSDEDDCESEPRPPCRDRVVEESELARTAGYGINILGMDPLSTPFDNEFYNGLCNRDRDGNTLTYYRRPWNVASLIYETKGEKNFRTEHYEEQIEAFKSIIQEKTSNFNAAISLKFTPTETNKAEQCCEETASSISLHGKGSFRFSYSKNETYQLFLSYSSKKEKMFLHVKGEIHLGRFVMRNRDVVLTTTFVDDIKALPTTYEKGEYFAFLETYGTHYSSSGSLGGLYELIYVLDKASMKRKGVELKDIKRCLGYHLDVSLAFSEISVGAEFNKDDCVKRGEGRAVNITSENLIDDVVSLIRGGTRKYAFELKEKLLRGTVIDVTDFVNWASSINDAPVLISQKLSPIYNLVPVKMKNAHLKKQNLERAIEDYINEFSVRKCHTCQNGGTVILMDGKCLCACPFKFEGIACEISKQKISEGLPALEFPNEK
# human CD59 F42A (human), sequence (P13987 26-102 F67A): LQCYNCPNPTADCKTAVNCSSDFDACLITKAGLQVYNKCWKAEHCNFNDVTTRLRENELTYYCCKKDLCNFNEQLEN
# human CD59 20A23A (human), sequence (P13987 other isoform, or with tags, fused parts or gaps): as the sequence (P13987 26-102 F67A) above, with S20A, F23A, A42F counted along it
# human CD59 W40A (human), sequence (P13987 26-102 W65A): as the sequence (P13987 26-102 F67A) above, with W40A, A42F counted along it
# human CD59 H44A (human), sequence (P13987 26-102 H69A): as the sequence (P13987 26-102 F67A) above, with A42F, H44A counted along it
# wild type human CD59, epitope-tagged, GPI-anchored on CHO cells (human), sequence (P13987 26-102 limits assumed): as the sequence (P13987 26-102 F67A) above, with A42F counted along it
# human CD59 T52A (human), sequence (P13987 26-102, stated change not applied): as the sequence (P13987 26-102 F67A) above, with A42F counted along it
# human CD59 D24A (human), sequence (P13987 26-102 D49A): as the sequence (P13987 26-102 F67A) above, with D24A, A42F counted along it
# human CD59 F23G (human), sequence (P13987 26-102 F48G): as the sequence (P13987 26-102 F67A) above, with F23G, A42F counted along it
# human CD59 51A plus 20-23A (human), sequence (P13987 other isoform, or with tags, fused parts or gaps): as the sequence (P13987 26-102 F67A) above, with S20A, S21A, D22A, F23A, A42F, T51A counted along it
# human CD59 9R (human), sequence (P13987 26-102): as the sequence (P13987 26-102 F67A) above, with A42F counted along it
# human CD59 5R (human), sequence (P13987 26-102): as the sequence (P13987 26-102 F67A) above, with A42F counted along it
substance,measurement,setting,value
anti-CD59 mAb MEM43 (antibody),percent of relative mean fluorescence compared to wt CD59,[1],100%
same,percent of relative mean fluorescence compared to wt CD59,human CD59 W40A (human),6.2%
same,percent of relative mean fluorescence compared to wt CD59,[2],98.1%
same,percent of relative mean fluorescence compared to wt CD59,human CD59 D24A (human),3.5%
same,percent of relative mean fluorescence compared to wt CD59,human CD59 H44A (human),88.8%
same,percent of relative mean fluorescence compared to wt CD59,human CD59 F42A (human),99.7%
same,percent of relative mean fluorescence compared to wt CD59,human CD59 T52A (human),99.2%
same,percent of relative mean fluorescence compared to wt CD59,human CD59 F23G (human),98.8%
same,percent of relative mean fluorescence compared to wt CD59,[3],92.3%
anti-CD59 mAb MEM43.5 (antibody),percent of relative mean fluorescence compared to wt CD59,human CD59 5R (human),8.2%
same,percent of relative mean fluorescence compared to wt CD59,[1],100%
same,percent of relative mean fluorescence compared to wt CD59,human CD59 9R (human),98.4%
same,percent of relative mean fluorescence compared to wt CD59,human CD59 W40A (human),0.7%
same,percent of relative mean fluorescence compared to wt CD59,[2],97.7%
same,percent of relative mean fluorescence compared to wt CD59,human CD59 D24A (human),1.9%
same,percent of relative mean fluorescence compared to wt CD59,human CD59 H44A (human),85.9%
same,percent of relative mean fluorescence compared to wt CD59,human CD59 F42A (human),99.9%
same,percent of relative mean fluorescence compared to wt CD59,human CD59 T52A (human),99.2%
same,percent of relative mean fluorescence compared to wt CD59,human CD59 F23G (human),98.9%
same,percent of relative mean fluorescence compared to wt CD59,[3],98.1%
anti-CD59 mAb YTH53.1 (antibody),percent of relative mean fluorescence compared to wt CD59,human CD59 5R (human),47.9%
same,percent of relative mean fluorescence compared to wt CD59,[1],100%
same,percent of relative mean fluorescence compared to wt CD59,human CD59 9R (human),100%
same,percent of relative mean fluorescence compared to wt CD59,human CD59 W40A (human),1%
same,percent of relative mean fluorescence compared to wt CD59,[2],35.7%
same,percent of relative mean fluorescence compared to wt CD59,human CD59 D24A (human),5%
same,percent of relative mean fluorescence compared to wt CD59,human CD59 H44A (human),58.7%
same,percent of relative mean fluorescence compared to wt CD59,human CD59 F42A (human),99.8%
same,percent of relative mean fluorescence compared to wt CD59,human CD59 T52A (human),99.3%
same,percent of relative mean fluorescence compared to wt CD59,human CD59 F23G (human),99.3%
same,percent of relative mean fluorescence compared to wt CD59,[3],18.3%
human CD59 51A20A (from UniProt P13987 26-102),increase in inhibitory activity compared to the wt protein,[4],165 % increase
same,inhibitory activity relative to the single mutant T29A,[4],2 fold of T29A
